Seven molecules from PMC4432371, “Functional Characterization of Novel Sesquiterpene Synthases from Indian Sandalwood, Santalum album” (Scientific Reports, 2015) can be followed below.

The target of data set [1] is SaFDS (Santalum album, UniProt E3W209). Nature of the data set: GC / GC-MS of (E,E)-farnesol after alkaline phosphatase. As to conditions: 25 mM HEPES, 10% glycerol, 5 mM DTT, 10 mM MgCl2, pH 7.4, 30 °C. The format is biochemical.
Data set [2] has as its target SaSS (Santalum album, UniProt E3W202, Y539W). Nature of the data set: GC / GC-MS product analysis. The format is biochemical. The conditions noted are these: data not shown; mutant sequence NCBI JQ690659; assay form of the mutant not described.
Substrate in data set [3]: CC(C)=CCC/C(C)=C/CC/C(C)=C/CO[P@@](=O)(O)OP(=O)(O)O
Nature of the data set: GC quantification of product, steady-state kinetics. The data set is classed as biochemical, Santalum album. The conditions noted are these: apparent Km, HEPES buffer, 30 °C, 5 min, 5 μM enzyme. An excerpt: GC quantification of product, steady-state kinetics on SaBS

Substrate in data set [4]: CC(C)=CCC/C(C)=C/CC/C(C)=C/CO[P@@](=O)(O)OP(=O)(O)O
The data set is described as above. The format is biochemical, Santalum album. As to conditions: apparent Km, HEPES buffer, 30 °C, 5 min, 5 μM enzyme. The text has this: GC quantification of product, steady-state kinetics on SaSQS1
This is another data set of the same source.

Substrate in data set [5]: CC(C)=CCC/C(C)=C/CC/C(C)=C/CO[P@@](=O)(O)OP(=O)(O)O
The data set is described as above. The format is biochemical, Santalum album. The conditions noted are these: apparent Km, HEPES buffer, 30 °C, 5 min, 5 μM enzyme. The text has this: GC quantification of product, steady-state kinetics on SaSS
The source holds these as a separate data set.

Substrate in data set [6]: CC(C)=CCC/C(C)=C/CC/C(C)=C/CO[P@@](=O)(O)OP(=O)(O)O
The data set is described as above. The format is biochemical, Santalum album. The conditions noted are these: apparent Km, HEPES buffer, 30 °C, 5 min, 5 μM enzyme. The text has this: GC quantification of product, steady-state kinetics on SaSQS2
This is another data set of the same source.

SaFDS, sequence (E3W209 entry or part of it): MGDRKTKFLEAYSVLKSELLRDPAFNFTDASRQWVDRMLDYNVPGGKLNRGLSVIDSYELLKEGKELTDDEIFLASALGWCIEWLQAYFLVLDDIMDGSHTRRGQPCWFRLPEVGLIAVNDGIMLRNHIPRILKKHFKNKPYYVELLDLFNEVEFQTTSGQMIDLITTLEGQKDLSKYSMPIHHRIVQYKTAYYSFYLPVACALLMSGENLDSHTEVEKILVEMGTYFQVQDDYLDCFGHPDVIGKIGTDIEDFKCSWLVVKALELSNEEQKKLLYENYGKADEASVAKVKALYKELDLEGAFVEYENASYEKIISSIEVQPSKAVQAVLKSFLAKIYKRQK
SaSS, sequence (E3W202 whole entry Y539W): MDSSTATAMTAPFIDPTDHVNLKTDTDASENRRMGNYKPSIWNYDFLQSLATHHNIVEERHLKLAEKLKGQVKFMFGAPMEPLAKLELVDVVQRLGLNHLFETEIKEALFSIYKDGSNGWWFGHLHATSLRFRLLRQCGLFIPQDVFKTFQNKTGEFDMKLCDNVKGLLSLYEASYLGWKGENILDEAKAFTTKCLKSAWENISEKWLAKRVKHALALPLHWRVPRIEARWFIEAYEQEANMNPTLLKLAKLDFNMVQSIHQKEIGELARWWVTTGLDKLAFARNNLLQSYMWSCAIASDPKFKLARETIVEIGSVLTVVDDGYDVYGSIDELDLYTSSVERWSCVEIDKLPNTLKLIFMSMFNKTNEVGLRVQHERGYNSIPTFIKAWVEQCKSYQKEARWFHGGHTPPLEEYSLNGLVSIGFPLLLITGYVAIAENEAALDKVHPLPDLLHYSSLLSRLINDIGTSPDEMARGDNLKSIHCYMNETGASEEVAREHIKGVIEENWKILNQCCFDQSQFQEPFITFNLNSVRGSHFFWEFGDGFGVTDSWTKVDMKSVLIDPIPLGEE

Take `CC(C)=CCC/C(C)=C/COP(=O)(O)OP(=O)(O)O` [GPP]: the “GC / GC-MS of (E,E)-farnesol after alkaline phosphatase” value in data set [1] (with IPP) was “Incubation of recombinant SaFDS with equimolar concentrations of IPP and GPP”.

Regarding `CC(C)=CCC/C(C)=C/CC/C(C)=C/COP(=O)(O)OP(=O)(O)O` [(E,E)-FPP], in data set [2], the “GC / GC-MS product analysis” value is “a mutant of SaSS (Y539W, NCBI: JQ690659) was able to cyclize (E,E)-FPP”.

Turning to `C=C(C)CCOP(=O)(O)OP(=O)(O)O` [IPP], the “GC / GC-MS of (E,E)-farnesol after alkaline phosphatase” value in data set [1] (with GPP or DMAPP) is “Incubation of recombinant SaFDS with equimolar concentrations of IPP and GPP”.

B1: SaBS (Santalum album) (protein)
chain: MDAFATSPTSALIKAVNCIAHVTPMAGEDSSENRRASNYKPSSWDYEFLQSLATSHNTVQEKHMKMAEKLKEEVKSMIKGQMEPVAKLELINILQRLGLKYRFESEIKEELFSLYKDGTDAWWVDNLHATALRFRLLRENGIFVPQDVFETLKDKSGKFKSQLCKDVRGLLSLYEASYLGWEGEDLLDEAKKFSTTNLNNVKESISSNTLGRLVKHALNLPLHWSAARYEARWFIDEYEKEENVNPNLLKYAKFDFNIVQSIHQRELGNLARWWVETGLDKLSFVRNTLMQNFMWGCAMVFEPQYGKVRDAAVKQASLIAMVDDVYDVYGSLEELEIFTDIVDRWDITGIDKLPRNISMILLTMFNTANQIGYDLLRDRGFNGIPHIAQAWATLCKKYLKEAKWYHSGYKPTLEEYLENGLVSISFVLSLVTAYLQTETLENLTYESAAYVNSVPPLVRYSGLLNRLYNDLGTSSAEIARGDTLKSIQCYMTQTGATEEAAREHIKGLVHEAWKGMNKCLFEQTPFAEPFVGFNVNTVRGSQFFYQHGDGYAVTESWTKDLSLSVLIHPIPLNEED
One may read the Km as the substrate concentration at which the rate is half of its maximum. As usually defined, the kcat is the number of substrate molecules converted per active site and unit of time at saturation. Usually kcat/Km stands for the second-order rate constant that governs catalysis at low substrate concentration. In the case of B1, in data set [3], the Km worked out at 12.59 ± 1.40 µM, the turnover number (kcat) was 0.000667 s⁻¹ and the kcat/Km worked out at 50 M⁻¹ s⁻¹.

B2: SaSQS1 (Santalum album) (protein)
chain: MDLCQIPPTSPISPSVPFNGDDSSVVRRSANYPANLWDYDFLQSLGRHSSVTEEHVGLAEKLKGEVKSLITGPMEPLAKLEFIDSVRRLGLKYQFETEMKEALANISKDGYDSWWVDNLRATALRFRLLRENGIFVPQDVFERFQNKETGKFKNELCEDVKGLLNLYEASFLGWEGEDILDEARTFSTAQLKNVEGKISSPNLAKIVHHALDLPLHWRAIRYEARWFIDIYEDEEDMNPTLLKYAKLDFNIVQSFHQAEIGRLARWWVGTGLDKLPFARNGLIQSYMYAIGMLFEPHLGEVREMEAKVGALITTIDDVYDVYGTMEELELFTDITERWDINRVDQLPRNIRMPLLTMFNTSNDIGYWALKERGFNGIPYTAKVWADQLKSYTKEAKWFHEGHKPTLEEYLENALVSIGFPNLLVTSYLLTVDNPTKEKLDYVDSLPLFVRASCILCRIINDLGTSPDEMERGDNLKSIQCYMNETGASQEVAREHIEGLVRMWWKRLNKCLFEPSPFTEPFLSFTINVVRGSHFFYQYGDGYGNAESWTKNQGMSVLIHPITLDEE
As to B2, in data set [4], the Km is 11.12 ± 2.80 µM, the catalytic constant (kcat) was 0.00583 ± 0.0005 s⁻¹ and the kcat/Km was 500 M⁻¹ s⁻¹.

B3: SaSS (Santalum album) (protein)
chain: MDSSTATAMTAPFIDPTDHVNLKTDTDASENRRMGNYKPSIWNYDFLQSLATHHNIVEERHLKLAEKLKGQVKFMFGAPMEPLAKLELVDVVQRLGLNHLFETEIKEALFSIYKDGSNGWWFGHLHATSLRFRLLRQCGLFIPQDVFKTFQNKTGEFDMKLCDNVKGLLSLYEASYLGWKGENILDEAKAFTTKCLKSAWENISEKWLAKRVKHALALPLHWRVPRIEARWFIEAYEQEANMNPTLLKLAKLDFNMVQSIHQKEIGELARWWVTTGLDKLAFARNNLLQSYMWSCAIASDPKFKLARETIVEIGSVLTVVDDGYDVYGSIDELDLYTSSVERWSCVEIDKLPNTLKLIFMSMFNKTNEVGLRVQHERGYNSIPTFIKAWVEQCKSYQKEARWFHGGHTPPLEEYSLNGLVSIGFPLLLITGYVAIAENEAALDKVHPLPDLLHYSSLLSRLINDIGTSPDEMARGDNLKSIHCYMNETGASEEVAREHIKGVIEENWKILNQCCFDQSQFQEPFITFNLNSVRGSHFFYEFGDGFGVTDSWTKVDMKSVLIDPIPLGEE
In the case of B3, in data set [5], the Km was 0.59 ± 0.24 µM, the kcat came out at 0.00833 ± 0.0005 s⁻¹ and the kcat/Km was determined as 15000 M⁻¹ s⁻¹.

B4: SaSQS2 (Santalum album) (protein)
chain: MASVIVEPIRCNNDNDVISTVVDDSSVVRRAANYPPNLWDYEFLQSLGDQCTVEEKHLKLADKLKEEVKSLIKQTMEPLTKLEFIDTVRRLGLKYQFETEVKEAVVMVSKYENDAWWIDNLHATSLRFRIMRENGIFVPQDVFERFKDTDGFKNQLCEDVKGLLSLYEASFLGWEGEDILDEARTFATSKLKSIEGKIPSPSLAKKVSHALDLPLHWRTIRYEARWFIDTYEEEEDVNLTLLRYAKLDFNIVQSFHQKEIGRLSRWWVGTGLDKMPFARNGLIQSYMYAIGMLFEPNLGEVREMEAKVGALITTIDDVYDVYGTMEELELFTDITNRWDISKADQLPRNIRMPLLTMFNTSNDIGYWALKERGFNGIPCTAKVWSDQLKSYTKEAKWFHEGHKPTLEEYLDNALVSIGFPNLLVTSYLLTVENPTKEKLDYVNSLPLFVRASCILCRIINDLGTSPDEMERGDNLKSIQCYMNEAGASQEVAREHIEGLVRMWWKRLNKCLFEPSPFAEPFLSFTVNVVRGSHFFYQYGDGYGNAESWTKKQGMSVLIHPIPLNEE
With B4, in data set [6], the Km was determined as 15.30 ± 3.83 µM, the kcat was 0.00233 ± 0.000167 s⁻¹ and the kcat/Km is 150 M⁻¹ s⁻¹.
